From paper PMC4894655, “Three proliferating cell nuclear antigen homologues from Metallosphaera sedula form a head-to-tail heterotrimer” (Scientific Reports, 2016)

Assays:
[1] = target: T1, SsoPCNA2 (Sulfolobus solfataricus); test: SPR; 5 nM SsoPCNA1
T1 chain: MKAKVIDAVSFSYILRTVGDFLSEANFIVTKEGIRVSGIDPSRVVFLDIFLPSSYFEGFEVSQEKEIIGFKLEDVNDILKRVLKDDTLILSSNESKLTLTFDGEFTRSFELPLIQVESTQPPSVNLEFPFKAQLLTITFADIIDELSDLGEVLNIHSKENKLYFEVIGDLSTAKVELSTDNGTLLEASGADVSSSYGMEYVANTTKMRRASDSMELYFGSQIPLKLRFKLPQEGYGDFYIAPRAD

[2] = target: T2, MsePCNA2 (Metallosphaera sedula, UniProt A4YHP5 1-244); test: SPR; 5 nM SsoPCNA1
T2 chain: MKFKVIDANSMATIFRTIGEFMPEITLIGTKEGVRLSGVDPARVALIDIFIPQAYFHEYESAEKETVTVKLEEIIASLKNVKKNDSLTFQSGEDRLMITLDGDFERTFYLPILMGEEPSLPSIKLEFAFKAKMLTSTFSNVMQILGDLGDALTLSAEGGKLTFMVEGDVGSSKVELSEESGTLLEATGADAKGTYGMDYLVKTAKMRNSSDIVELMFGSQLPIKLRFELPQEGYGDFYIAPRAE

[3] = target: T1, SsoPCNA2; test: SPR; 5 nM SsoPCNA1
[4] = target: T1, SsoPCNA2; test: SPR; 10 nM SsoPCNA1
[5] = target: T2, MsePCNA2; test: SPR; 10 nM SsoPCNA1
[6] = target: T1, SsoPCNA2; test: SPR; 20 nM SsoPCNA1
[7] = target: T2, MsePCNA2; test: SPR; 20 nM SsoPCNA1
[8] = target: T1, SsoPCNA2; test: SPR; 40 nM SsoPCNA1
[9] = target: T1, SsoPCNA2; test: SPR; 75 nM SsoPCNA1
[10] = target: T2, MsePCNA2; test: SPR; 75 nM SsoPCNA1
[11] = target: T2, MsePCNA2; test: SPR; 10 nM SsoPCNA1
[12] = target: T1, SsoPCNA2; test: SPR; 20 nM SsoPCNA1
[13] = target: T2, MsePCNA2; test: SPR; 20 nM SsoPCNA1
[14] = target: T2, MsePCNA2; test: SPR; 40 nM SsoPCNA1
[15] = target: T2, MsePCNA2; test: SPR; 75 nM SsoPCNA1
[16] = target: T1, SsoPCNA2; test: SPR; 2.5 nM SsoPCNA1
[17] = target: T2, MsePCNA2; test: SPR; 2.5 nM SsoPCNA1
[18] = target: T1, SsoPCNA2; test: SPR; 2.5 nM SsoPCNA1
[19] = target: T2, MsePCNA2; test: SPR; 2.5 nM SsoPCNA1
[20] = target: T1, SsoPCNA2; test: SPR; 0.61 nM SsoPCNA1
[21] = target: T2, MsePCNA2; test: SPR; 0.61 nM SsoPCNA1
[22] = target: T1, SsoPCNA2; test: SPR; 0.61 nM SsoPCNA1
[23] = target: T2, MsePCNA2; test: SPR; 0.61 nM SsoPCNA1
[24] = target: T1, SsoPCNA2; test: SPR; Biacore; about 350 RU of MsePCNA2 or SsoPCNA2 immobilised on Sensor Chip CM5; MsePCNA1 or SsoPCNA1 injected (2.5, 5, 10, 20, 40 nM), kinetic fit; 10 mM HEPES-HCl pH 7.4, 150 mM NaCl

B1: SsoPCNA1 (natural protein)
chain: MFKIVYPNAKDFFSFINSITNVTDSIILNFTEDGIFSRHLTEDKVLMAIMRIPKDVLSEYSIDSPTSVKLDVSSVKKILSKASSKKATIELTETDSGLKIIIRDEKSGAKSTIYIKAEKGQVEQLTEPKVNLAVNFTTDESVLNVIAADVTLVGEEMRISTEEDKIKIEAGEEGKRYVAFLMKDKPLKELSIDTSASSSYSAEMFKDAVKGLRGFSAPTMVSFGENLPMKIDVEAVSGGHMIFWIAPRL
koff [1]: 0.000173 s⁻¹ | koff [2]: 0.000505 s⁻¹ | Kd [3]: 0.602 nM | koff [4]: 0.000182 s⁻¹ | koff [5]: 0.000501 s⁻¹ | koff [6]: 0.000163 s⁻¹ | koff [7]: 0.000472 s⁻¹ | koff [8]: 0.000134 s⁻¹ | koff [9]: 3.07e-05 s⁻¹ | koff [10]: 9.46e-05 s⁻¹ | Kd [11]: 1.57 nM | Kd [12]: 0.116 nM | Kd [13]: 2.67 nM | Kd [14]: 1.63 nM | Kd [15]: 2.14 nM | koff [16]: 0.000171 s⁻¹ | koff [17]: 0.000512 s⁻¹ | Kd [18]: 0.473 nM | Kd [19]: 1.41 nM | koff [20]: 0.000172 s⁻¹ | koff [21]: 0.000528 s⁻¹ | Kd [22]: 0.383 nM | Kd [23]: 1.21 nM | Kd [24]: 0.65 nM | koff [24]: 0.00015 s⁻¹ | kon [24]: 250000 M⁻¹ s⁻¹
